# Data: doi:10.1101/2023.12.21.572878
# Where “and” joins values, the source holds several entries; their conditions need not be identical. Equal entries are not always repeated.
# Columns and labels:
# [1] = target: Dimeric kinesin K401-BIO-H6 (Drosophila | E. coli) (UniProt P17210); experiment: mass photometry
# Streptavidin = Streptavidin (UniProt P22629); experiment: mass photometry
# Sequence of Streptavidin (P22629 25-183): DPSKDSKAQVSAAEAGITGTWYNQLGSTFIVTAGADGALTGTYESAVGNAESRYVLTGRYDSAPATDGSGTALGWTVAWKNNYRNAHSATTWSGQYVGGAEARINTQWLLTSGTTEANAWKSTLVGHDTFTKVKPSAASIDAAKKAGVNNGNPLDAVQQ
substance,measurement,setting,value
Dimeric kinesin K401-BIO-H6 (from UniProt P17210 1-401),stoichiometry N,[1],2
same,stoichiometry N (kinesin dimers per streptavidin tetramer),Streptavidin,1 and 2 and 3
